Measured values: PMC6117947, “A role for trypanosomatid aldo-keto reductases in methylglyoxal, prostaglandin and isoprostane metabolism” (Biochemical Journal, 2018)

Tests used:
[1] = biological target: Leishmania infantum prostaglandin F synthase 1 (LiPGFS1) (Leishmania infantum); assay: SEC; Superdex 75 10/300; LiPGFS1 kept 96 h at 4°C without a reducing agent, run without TCEP; the dimer relies on a disulfide bond
purified protein [2] = substrate: CC(=O)C=O; assay: purified protein; format: biochemical, Trypanosoma brucei; settings: 100 µM NADPH, 25 mM HEPES, 150 mM NaCl, pH 7.33
purified protein [3] = substrate: O=CC(=O)c1ccccc1; assay: purified protein; format: biochemical, Trypanosoma brucei; settings: 100 µM NADPH, 25 mM HEPES, 150 mM NaCl, pH 7.33
purified protein [4] = substrate: O=Cc1ccc([N+](=O)[O-])cc1; assay: purified protein; format: biochemical, Trypanosoma brucei; settings: 100 µM NADPH, 25 mM HEPES, 150 mM NaCl, pH 7.33
purified protein [5] = substrate: O=Cc1cccc([N+](=O)[O-])c1; assay: purified protein; format: biochemical, Trypanosoma brucei; settings: 100 µM NADPH, 25 mM HEPES, 150 mM NaCl, pH 7.33
purified protein [6] = substrate: O=Cc1ccccc1[N+](=O)[O-]; assay: purified protein; format: biochemical, Trypanosoma brucei; settings: 100 µM NADPH, 25 mM HEPES, 150 mM NaCl, pH 7.33
purified protein [7] = substrate: CC(=O)C=O; assay: purified protein; format: biochemical, Leishmania infantum; settings: 100 µM NADPH, 25 mM HEPES, 150 mM NaCl, pH 7.33
purified protein [8] = substrate: O=CC(=O)c1ccccc1; assay: purified protein; format: biochemical, Leishmania infantum; settings: 100 µM NADPH, 25 mM HEPES, 150 mM NaCl, pH 7.33
purified protein [9] = substrate: O=CC(O)CO; assay: purified protein; format: biochemical, Leishmania infantum; settings: 100 µM NADPH, 25 mM HEPES, 150 mM NaCl, pH 7.33
purified protein [10] = substrate: O=Cc1ccc([N+](=O)[O-])cc1; assay: purified protein; format: biochemical, Leishmania infantum; settings: 100 µM NADPH, 25 mM HEPES, 150 mM NaCl, pH 7.33
purified protein [11] = substrate: O=Cc1ccccc1[N+](=O)[O-]; assay: purified protein; format: biochemical, Leishmania infantum; settings: 100 µM NADPH, 25 mM HEPES, 150 mM NaCl, pH 7.33
purified protein [12] = substrate: O=CC=O; assay: purified protein; format: biochemical, Leishmania infantum; settings: 100 µM NADPH, 25 mM HEPES, 150 mM NaCl, pH 7.33
purified protein [13] = substrate: O=Cc1cccc([N+](=O)[O-])c1; assay: purified protein; format: biochemical, Leishmania infantum; settings: 100 µM NADPH, 25 mM HEPES, 150 mM NaCl, pH 7.33
purified protein [14] = substrate: CC(=O)C=O; assay: purified protein; format: biochemical, Trypanosoma cruzi; settings: 100 µM NADPH, 25 mM HEPES, 150 mM NaCl, pH 7.33
purified protein [15] = substrate: O=CC(=O)c1ccccc1; assay: purified protein; format: biochemical, Trypanosoma cruzi; settings: 100 µM NADPH, 25 mM HEPES, 150 mM NaCl, pH 7.33
purified protein [16] = substrate: O=CC(O)CO; assay: purified protein; format: biochemical, Trypanosoma cruzi; settings: 100 µM NADPH, 25 mM HEPES, 150 mM NaCl, pH 7.33
purified protein [17] = substrate: O=CC=O; assay: purified protein; format: biochemical, Trypanosoma cruzi; settings: 100 µM NADPH, 25 mM HEPES, 150 mM NaCl, pH 7.33
purified protein [18] = substrate: O=Cc1ccccc1[N+](=O)[O-]; assay: purified protein; format: biochemical, Trypanosoma cruzi; settings: 100 µM NADPH, 25 mM HEPES, 150 mM NaCl, pH 7.33

Leishmania infantum prostaglandin F synthase 1 (LiPGFS1) (enzyme)
percent of the protein eluting as dimer [1]: 25%
stoichiometry N [1]: 2

B1: TbPGFS (Trypanosoma brucei brucei) (protein)
chain: MALTQSLKLSNGVMMPVLGFGMWKLQDGNEAETATMWAIKSGYRHIDTAAIYKNEESAGRAIASCGVPREELFVTTKLWNSDQGYESTLSAFEKSIKKLGLEYVDLYLIHWPGKDKFIDTWKAFEKLYADKKVRAIGVSNFHEHHIEELLKHCKVAPMVNQIELHPLLNQKALCEYCKSKNIAVTAWSPLGQGHLVEDARLKAIGGKYGKTAAQVMLRWEIQAGVITIPKSGNEARIKENGNIFDFELTAEDIQVIDGMNAGHRYGPDPEVFMNDF
notes: full-length ORF from genomic DNA, pET15b-TEV, E. coli, His6 tag cut with TEV protease; monomer
kcat (purified protein [2]): 0.38 ± 0.007 s⁻¹
kcat/Km (purified protein [2]): 38000 M⁻¹ s⁻¹
Km (purified protein [3]): 5 ± 0.8 µM
kcat (purified protein [3]): 0.34 ± 0.014 s⁻¹
kcat/Km (purified protein [3]): 68000 M⁻¹ s⁻¹
Km (purified protein [4]): 4.3 ± 0.2 µM
kcat (purified protein [4]): 0.43 ± 0.008 s⁻¹
kcat/Km (purified protein [4]): 100000 M⁻¹ s⁻¹
Km (purified protein [5]): 2 ± 0.1 µM
kcat (purified protein [5]): 0.34 ± 0.005 s⁻¹
kcat/Km (purified protein [5]): 170000 M⁻¹ s⁻¹
Km (purified protein [6]): 3 ± 0.3 µM
kcat (purified protein [6]): 0.41 ± 0.002 s⁻¹
kcat/Km (purified protein [6]): 140000 M⁻¹ s⁻¹

B2: LiPGFS1 (Leishmania infantum) (protein)
chain: MTGKCTHVTLGNGVQVPQLGIGTWEAKNGNEVVQNIKWAINAGYRHIDTAHYYKNEKGVGQGISECGVPRSDIFVTTKLWNYDHGYESALAAFEQSRQALGVEYVDLYLIHWPGPNRSYIETWRAFEKLYEMKKVRAIGVSNFEPHHLDDLLANCTVPPMVNQVEMHPHFQQKALRAYCAEKNIAVTAWRPLGKGALLTEPQLVELAEKHKRSAAQVIIRWLIQLGVIAIPKSSHEERIKQNFDVFDFELSPEDMRRLESMDKNSRIGPSPETFFPTECK
notes: synthetic full-length ORF (GeneART), pET15b-TEV, E. coli, His6 tag cut with TEV protease; mainly monomer
Km (purified protein [7]): 800 ± 70 µM
kcat (purified protein [7]): 8.72 ± 0.17 s⁻¹
kcat/Km (purified protein [7]): 10900 M⁻¹ s⁻¹
Km (purified protein [8]): 140 ± 8 µM
kcat (purified protein [8]): 10.4 ± 0.22 s⁻¹
kcat/Km (purified protein [8]): 74300 M⁻¹ s⁻¹
Km (purified protein [9]): 2870 ± 80 µM
kcat (purified protein [9]): 8.72 ± 0.11 s⁻¹
kcat/Km (purified protein [9]): 3040 M⁻¹ s⁻¹
Km (purified protein [10]): 430 ± 26 µM
kcat (purified protein [10]): 0.48 ± 0.01 s⁻¹
kcat/Km (purified protein [10]): 1110 M⁻¹ s⁻¹
Km (purified protein [11]): 320 ± 20 µM
kcat (purified protein [11]): 8.5 ± 0.21 s⁻¹
kcat/Km (purified protein [11]): 26600 M⁻¹ s⁻¹

B3: LiPGFS2 (Leishmania infantum) (protein)
chain: MADVGKAMVTLSNGVQMPQLGLGVWQSPAGEVTANAVKWALCAGYRHIDTAAIYKNEESVGAGLRASGVPREDVFITTKLWNTEQGYESTLAAFEESRQKLGVDYIDLYLIHWPRGKDIVSKEGKKYLDSWRAFEQLYKDKKVRAIGVSNFHIHHLEDVLAMCTVTPMVNQVELHPLNNQAELRAFCDAKQIKVEAWSPLGQGKLLSNPILAAIGAKYNKTAAQVILRWNIQKNLITIPKSVHKERIEENADVFNFELGAEDVMRIDALNTNSRYGPDPDEAQF
notes: as for B1
kcat (purified protein [7]): 1.13 ± 0.01 s⁻¹
kcat/Km (purified protein [7]): 56500 M⁻¹ s⁻¹
Km (purified protein [12]): 560 ± 50 µM
kcat (purified protein [12]): 1.05 ± 0.02 s⁻¹
kcat/Km (purified protein [12]): 1880 M⁻¹ s⁻¹
Km (purified protein [10]): 4 ± 0.6 µM
kcat (purified protein [10]): 1.13 ± 0.05 s⁻¹
kcat/Km (purified protein [10]): 283000 M⁻¹ s⁻¹
Km (purified protein [13]): 2 ± 0.3 µM
kcat (purified protein [13]): 1.04 ± 0.02 s⁻¹
kcat/Km (purified protein [13]): 520000 M⁻¹ s⁻¹
Km (purified protein [11]): 2.4 ± 0.3 µM
kcat (purified protein [11]): 1.04 ± 0.02 s⁻¹
kcat/Km (purified protein [11]): 433000 M⁻¹ s⁻¹

B4: TcAKR (Trypanosoma cruzi) (protein)
chain: MNCNYNCVTLHNSAQMPQLGLGVWRAQDGAETANAVRWAIEAGYRHIDTACIYNNEKGVGQGIRESGVPREEVWVTTKVWNSDQGYEKTLAAFERSRELLGLEYIDLYLIHWPGKKKFVDTWKALEKLYEEKKVRAIGVSNFEPHHLTELFKSCKIRPMVNQVELHPLFQQRALREFCKQHNIAVTAWSPLGSGDEAGILKNHVLGEIAKKHNKSPAQVVIRWDIQHGIVTIPKSTNKGRIQENFNVWDFKLTEEEMRQIDELNEDKRIGADPDNFFPGGEE
notes: full-length ORF, pET15b-TEV, E. coli Rosetta (DE3) pLysS, His6 tag cut with TEV protease; monomer
kcat (purified protein [14]): 4.69 ± 0.03 s⁻¹
kcat/Km (purified protein [14]): 19500 M⁻¹ s⁻¹
Km (purified protein [15]): 50 ± 3 µM
kcat (purified protein [15]): 4.46 ± 0.08 s⁻¹
kcat/Km (purified protein [15]): 89200 M⁻¹ s⁻¹
Km (purified protein [16]): 1500 ± 170 µM
kcat (purified protein [16]): 4.94 ± 0.11 s⁻¹
kcat/Km (purified protein [16]): 3290 M⁻¹ s⁻¹
Km (purified protein [17]): 8300 ± 310 µM
kcat (purified protein [17]): 4.56 ± 0.05 s⁻¹
kcat/Km (purified protein [17]): 549 M⁻¹ s⁻¹
Km (purified protein [18]): 710 ± 80 µM
kcat (purified protein [18]): 2.25 ± 0.11 s⁻¹
kcat/Km (purified protein [18]): 3170 M⁻¹ s⁻¹
